Test results as given in US20260258146A1 (Regeneron, published 2026).
Blank lines part the entries; values can stand above or below the binder they belong to.

Assays:
Assay in all cases: cell-based or functional assay
[1] = target: T1, human CD28 on human primary CD3+ T cells (human, UniProt P10747 19-220)
[2] = target: T1, human CD28 on human primary CD3+ T cells; remark: listed apart in the source
[3] = target: T1, human CD28 on human primary CD3+ T cells; remark: listed apart in the source
[4] = target: T1, human CD28 on human primary CD3+ T cells; remark: listed apart in the source

EC50 T-cell proliferation; T cells + HEK293/hCD20/hCD38; bsAb6031 + TAAxCD3 [1]: 0.143 nM
EC50 T-cell proliferation; T cells + MOLP8; bsAb6031 + IgG4^P [1]: 0.467 nM
EC50 IFNγ release; T cells + HEK293/hCD20/hCD38; bsAb6031 + TAAxCD3 [2]: 0.294 nM
EC50 IFNγ release; T cells + MOLP8; bsAb6031 + TAAxCD3 [2]: 0.748 nM
EC50 IL2 release; T cells + HEK293/hCD20/hCD38; bsAb6031 + TAAxCD3 [3]: 0.199 nM
EC50 IL2 release; T cells + MOLP8; bsAb6031 + IgG4^P [3]: 0.653 nM
EC50 IL2 release; T cells + MOLP8; bsAb6031 + TAAxCD3 [3]: 1.02 nM
EC50 IL2 release; T cells + NALM-6/hPD-L1; bsAb6031 + Cemiplimab [4]: 4.39 nM
EC50 IL2 release; T cells + NALM-6/hPD-L1; bsAb6031 + IgG4^P [4]: 2.64 nM
EC50 IL2 release; T cells + NALM-6; bsAb6031 + Cemiplimab [4]: 2.44 nM
EC50 IL2 release; T cells + NALM-6; bsAb6031 + IgG4^P [4]: 1.68 nM
B1: bsAb6031 (bispecific antibody, human IgG4 S228P, kappa)
heavy 1: EVQLVESGGGLVQPGRSLRLSCAASGFTFDDYAMHWVRQAPGKGLEWVSGISWKSDNIGYADSVKGRFTISRDNAKNSLYLQMNSLRAEDTALYYCAKALGGWKFDYYYGMDVWGQGTTVTVSSASTKGPSVFPLAPCSRSTSESTAALGCLVKDYFPEPVTVSWNSGALTSGVHTFPAVLQSSGLYSLSSVVTVPSSSLGTKTYTCNVDHKPSNTKVDKRVESKYGPPCPPCPAPPVAGPSVFLFPPKPKDTLMISRTPEVTCVVVDVSQEDPEVQFNWYVDGVEVHNAKTKPREEQFNSTYRVVSVLTVLHQDWLNGKEYKCKVSNKGLPSSIEKTISKAKGQPREPQVYTLPPSQEEMTKNQVSLTCLVKGFYPSDIAVEWESNGQPENNYKTTPPVLDSDGSFFLYSRLTVDKSRWQEGNVFSCSVMHEALHNHYTQKSLSLSLGK
heavy 2: EVQLVESGGGLVQPGGSLRLSCAASGFTFSRNNMHWVRQAPGKGLEYVSGISSNGGRTYYADSVKGRFTISRDNSKNTLYLQMGGLRAADMAVYFCTRDDELLSFDYWGQGTLVTVSSASTKGPSVFPLAPCSRSTSESTAALGCLVKDYFPEPVTVSWNSGALTSGVHTFPAVLQSSGLYSLSSVVTVPSSSLGTKTYTCNVDHKPSNTKVDKRVESKYGPPCPPCPAPPVAGPSVFLFPPKPKDTLMISRTPEVTCVVVDVSQEDPEVQFNWYVDGVEVHNAKTKPREEQFNSTYRVVSVLTVLHQDWLNGKEYKCKVSNKGLPSSIEKTISKAKGQPREPQVYTLPPSQEEMTKNQVSLTCLVKGFYPSDIAVEWESNGQPENNYKTTPPVLDSDGSFFLYSRLTVDKSRWQEGNVFSCSVMHEALHNRFTQKSLSLSPGK
light: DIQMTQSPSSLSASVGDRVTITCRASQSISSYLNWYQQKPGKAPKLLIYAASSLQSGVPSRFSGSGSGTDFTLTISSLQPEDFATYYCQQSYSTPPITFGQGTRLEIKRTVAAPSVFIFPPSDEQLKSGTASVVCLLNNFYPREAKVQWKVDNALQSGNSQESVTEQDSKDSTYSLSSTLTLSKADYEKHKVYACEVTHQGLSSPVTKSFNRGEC

EC50 T-cell proliferation; T cells + HEK293/hCD20/hCD38; bsAb7945 + IgG4^P [1]: 45.6 nM
EC50 T-cell proliferation; T cells + HEK293/hCD20/hCD38; bsAb7945 + TAAxCD3 [1]: 0.000894 nM
EC50 IFNγ release; T cells + HEK293/hCD20/hCD38; bsAb7945 + TAAxCD3 [2]: 0.123 nM
EC50 IFNγ release; T cells + MOLP8; bsAb7945 + TAAxCD3 [2]: 0.00424 nM
EC50 IL2 release; T cells + HEK293/hCD20/hCD38; bsAb7945 + IgG4^P [3]: 41.4 nM
EC50 IL2 release; T cells + HEK293/hCD20/hCD38; bsAb7945 + TAAxCD3 [3]: 0.00502 nM
EC50 IL2 release; T cells + MOLP8; bsAb7945 + IgG4^P [3]: 0.00971 nM
EC50 IL2 release; T cells + NALM-6/hPD-L1; bsAb7945 + Cemiplimab [4]: 0.143 nM
EC50 IL2 release; T cells + NALM-6/hPD-L1; bsAb7945 + IgG4^P [4]: 0.169 nM
EC50 IL2 release; T cells + NALM-6; bsAb7945 + Cemiplimab [4]: 0.0981 nM
B2: bsAb7945 (bispecific antibody, human IgG4 S228P, kappa)
heavy 1: QVQLVQSGAEVKKPGSSVKVSCKASGGPFRSSSFSWVRQAPGQGLEWMGGIIPILGKTNYAQKFQGRITIVTDESTTTVYMELSSLRSEDTAVFYCVRGSSLFDYWGQGTLVTVSSASTKGPSVFPLAPCSRSTSESTAALGCLVKDYFPEPVTVSWNSGALTSGVHTFPAVLQSSGLYSLSSVVTVPSSSLGTKTYTCNVDHKPSNTKVDKRVESKYGPPCPPCPAPPVAGPSVFLFPPKPKDTLMISRTPEVTCVVVDVSQEDPEVQFNWYVDGVEVHNAKTKPREEQFNSTYRVVSVLTVLHQDWLNGKEYKCKVSNKGLPSSIEKTISKAKGQPREPQVYTLPPSQEEMTKNQVSLTCLVKGFYPSDIAVEWESNGQPENNYKTTPPVLDSDGSFFLYSRLTVDKSRWQEGNVFSCSVMHEALHNHYTQKSLSLSLGK
heavy 2: QVQLQESGPGLVKPSETLSLTCTVSGGSISSYYWSWIRQPPGKGLEWIGYIYYSGITHYNPSLKSRVTISVDTSKIQFSLKLSSVTAADTAVYYCARWGVRRDYYYYGMDVWGQGTTVTVSSASTKGPSVFPLAPCSRSTSESTAALGCLVKDYFPEPVTVSWNSGALTSGVHTFPAVLQSSGLYSLSSVVTVPSSSLGTKTYTCNVDHKPSNTKVDKRVESKYGPPCPPCPAPPVAGPSVFLFPPKPKDTLMISRTPEVTCVVVDVSQEDPEVQFNWYVDGVEVHNAKTKPREEQFNSTYRVVSVLTVLHQDWLNGKEYKCKVSNKGLPSSIEKTISKAKGQPREPQVYTLPPSQEEMTKNQVSLTCLVKGFYPSDIAVEWESNGQPENNYKTTPPVLDSDGSFFLYSRLTVDKSRWQEGNVFSCSVMHEALHNRFTQKSLSLSPGK
light: not shown
